Results taken from patent US20240254229A1 (Molecular Partners, published 2024).
Positions count from the first letter of the chain named. Each block holds one binder with its values, some of them ahead of it.

Assays:
[1] = target: T1, biotinylated extracellular domain of human CD33 (SEQ ID NO: 87), Fc and Avi tagged (human, UniProt P20138 18-259, biotinylated with BirA-GST (Avi tag)); test: crude extract HTRF, 6 nM biotinylated hCD33
T1 construct: also called hCD33; human target hCD33
Description: Similarly, individual selected ankyrin repeat proteins specifically binding to hCD33 in solution were identified by a Homogeneous Time Resolved Fluorescence (HTRF) assay using crude extracts of ankyrin repeat protein-expressing Escherichia coli cells using standard protocols. Ankyrin repeat protein clones selected by ribosome display were cloned into derivatives of the pQE30 (Qiagen) expression vector (pMPDV045), which contains a C-terminal CD3 binding designed ankyrin repeat protein followed by a Flag tag, transformed into E. coli XL1-Blue (Stratagene), plated on LB-agar (containing 1% glucose and 50 μg/ml ampicillin) and then incubated overnight at 37° C. […]
The extract of each lysed clone was applied as a 1:1000 dilution (final concentration) in PBSTB (PBS supplemented with 0.1% Tween 20® and 0.2% (w/v) BSA, pH 7.4) together with 6 nM (final concentration) biotinylated hCD33 (full-length or splice variant of ECD CD33), 1:400 (final concentration) of anti-strep-Tb HTRF antibody-FRET donor conjugate (Cisbio) and 1:400 (final concentration) of anti-6His-D2 antibody FRET acceptor conjugate (Cisbio) to a well of 384 well plate and incubated for 60 minutes at RT. The HTRF was read-out on a Tecan M1000 using a 340 nm excitation wavelength and a 665±10 nm emission filter. […]

[2] = target: T2, biotinylated extracellular domains of human CD33 (Speed BioSystems, cat #YCP2045) (human, UniProt P20138 18-259, biotinylated); test: SPR (ProteOn), biotinylated target on chip
T2 construct: extracellular domain
T2 sequence (P20138 18-259): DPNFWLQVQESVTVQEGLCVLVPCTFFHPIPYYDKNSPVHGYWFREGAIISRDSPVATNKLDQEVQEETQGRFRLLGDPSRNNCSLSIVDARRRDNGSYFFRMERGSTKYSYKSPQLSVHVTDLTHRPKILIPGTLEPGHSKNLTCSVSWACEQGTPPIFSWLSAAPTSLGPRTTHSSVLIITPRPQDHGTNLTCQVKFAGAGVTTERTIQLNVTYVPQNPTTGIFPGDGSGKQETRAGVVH
Method: (§1) Briefly, biotinylated human scCD3εγ was diluted in PBST (PBS, pH 7.4 containing 0.005% Tween 200) and coated on a NLC chip (BioRad) to a level of around 700-1400 resonance units (RU). The interaction of ankyrin repeat protein and human CD3 was then measured by injecting 300 μl running buffer (PBS, pH 7.4 containing 0.005% Tween 200) containing serial dilutions of ankyrin repeat proteins covering a concentration range between 64 nM and 4 nM for multi-trace SPR measurements, followed by a running buffer flow for at least 10 minutes at a constant flow rate of 60 μl/min (off-rate measurement). The regeneration was performed using 30 μl of 10 mM Glycine pH 2. The signals (i.e. resonance unit (RU) values) of the interspots and a reference injection (i.e. injection of running buffer only) were subtracted from the RU traces obtained after injection of ankyrin repeat protein (double-referencing). While binding was too weak for DARPin® protein #7, binding parameters (KD, on-rate, off-rate) against CD3 were determined for affinity matured constructs. On-rates (kₒₙ) and dissociation constants (KD) are given only as approximation because binding equilibrium was not appropriately reached even at highest samples concentration, leading to non-optimal fits for on-rates.
(§2) The binding affinities of two purified ankyrin repeat proteins on recombinant human CD33 and CD123 target respectively were analyzed using a ProteOn instrument (BioRad) and the measurement was performed according standard procedures known to the person skilled in the art. For that, DARPin® protein #25 (with binding specificity for CD33 and CD3), DARPin® protein #26 (with binding specificity for CD123 and […]) of the invention were subcloned and expressed as described above into derivatives of the pQE30 (Qiagen) expression vector, containing an N-terminal His-tag, CD33 or CD123 binding ankyrin repeat domains respectively, followed by one of the four CD3 specific ankyrin repeat protein constructs. The following steps were performed as described in A above. Briefly, biotinylated extracellular domains of human CD33 (provided by Speed BioSystems, Lot no cat #YCP2045) as target protein was used for the assessment of DARPin® protein #25 and biotinylated extracellular domains of human (uniprot ID 26951) for the assessment of DARPin® protein #26 accordingly.

[3] = target: T3, human CD3 on primary human pan-T cells (human, UniProt P07766 23-207; P09693 23-182; P04234 22-171; P20963 22-164); test: Mirrorball cytometry on primary human pan-T cells, 600 µM HSA
T3 construct: whole, on cells; Native complex on T cells isolated from PBMC; also called CD3 on Pan-T cells
T3 sequence (P07766 23-207, chain 1 of 4): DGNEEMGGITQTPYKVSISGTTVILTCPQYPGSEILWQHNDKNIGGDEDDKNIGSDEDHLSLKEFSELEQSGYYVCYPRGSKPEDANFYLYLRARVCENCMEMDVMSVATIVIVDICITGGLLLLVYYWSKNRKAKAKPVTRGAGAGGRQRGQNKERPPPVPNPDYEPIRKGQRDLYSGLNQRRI
T3 sequence (P09693 23-182, chain 2 of 4): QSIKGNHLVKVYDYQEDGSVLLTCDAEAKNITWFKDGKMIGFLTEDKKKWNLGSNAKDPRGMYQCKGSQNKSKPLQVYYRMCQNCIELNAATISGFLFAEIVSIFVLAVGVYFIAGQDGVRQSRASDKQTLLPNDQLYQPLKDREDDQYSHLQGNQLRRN
T3 sequence (P04234 22-171, chain 3 of 4): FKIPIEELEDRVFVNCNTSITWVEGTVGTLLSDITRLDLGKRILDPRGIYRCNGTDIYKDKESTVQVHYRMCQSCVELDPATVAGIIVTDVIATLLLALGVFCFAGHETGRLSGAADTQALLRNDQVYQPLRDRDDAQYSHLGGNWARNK
T3 sequence (P20963 22-164, chain 4 of 4): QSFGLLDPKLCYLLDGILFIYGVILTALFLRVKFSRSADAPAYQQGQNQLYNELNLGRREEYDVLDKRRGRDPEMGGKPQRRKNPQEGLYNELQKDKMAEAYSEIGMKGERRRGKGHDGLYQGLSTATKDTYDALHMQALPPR
Method: (§3) The determination of CD3 binding was performed with primary human T cells using Mirrorball laser scanning imaging cytometry. Therefore, primary T cells were isolated from human peripheral blood mononuclear cells (PBMCs) using a pan-T cell purification kit (Miltenyi Biotec). A titration of DARPin® protein #7, DARPin® protein #8 and DARPin® protein #9 and DARPin® protein #10, formatted into a trispecific format (including CD33 and CD123 binding ankyrin repeat domains), DARPin® protein #11, DARPin® protein #12, DARPin® protein #13 and DARPin® protein #14 UN tetraspecific format (including an additional ankyrin repeat domain binding specifically to human serum albumin) were incubated with 50′000 pan-T cells per well in presence of 600 μM human serum albumin (to mimic physiological serum concentration) for 30 minutes at 4° C. Two benchmark T-cell engagers, AMG330 and flotetuzumab were applied as controls, targeting CD33 or CD123. After washing, CD3 binding was detected by 1:100-diluted anti-penta-His Alexa Fluor 488 antibody (Qiagen). After 30 min incubation at 4° C., cells were washed and resuspended in Cytofix fixation buffer (BD Biosciences) and counterstained by 5 μM DRAQ5 (Abcam) for 15 min at RT. Median of mean fluorescence intensities of Alexa Fluor 488 binding on far-red counterstained cells were measured by Mirrorball using Cellista software (SPT Labtech) and data was plotted using GraphPad Prism 8.

[4] = target: T4, human scCD3εγ (scCD3εγ_Avi-Bio) (human, biotin on the C-terminal Avi-tag (in vitro, BirA) where the biotinylated form was used); test: SPR (ProteOn), biotinylated scCD3εγ on NLC chip, DARPin as analyte
T4 construct: Used for all SPR and HTRF results on human CD3; also called recombinant human CD3; human CD3
T4 chain: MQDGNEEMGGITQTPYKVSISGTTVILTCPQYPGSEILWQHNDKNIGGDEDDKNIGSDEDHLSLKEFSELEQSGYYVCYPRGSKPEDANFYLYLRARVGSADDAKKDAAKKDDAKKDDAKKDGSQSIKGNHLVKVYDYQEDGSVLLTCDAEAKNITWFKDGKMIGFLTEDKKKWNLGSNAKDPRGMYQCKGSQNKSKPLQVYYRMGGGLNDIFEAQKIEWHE
Method: The binding affinities of four purified ankyrin repeat proteins on recombinant human CD3 target were analyzed using a ProteOn instrument (BioRad) and the measurement was performed according standard procedures known to the person skilled in the art. For that, DARPin® protein #7, DARPin® protein #8 and DARPin® protein #9 and DARPin® protein #10 of the invention were subcloned and expressed as described above into derivatives of the pQE30 (Qiagen) expression vector, containing an N-terminal His-tag, CD33 and CD123 binding ankyrin repeat domains, followed by one of the four CD3 specific ankyrin repeat protein constructs.
as §1
Dissociation constants (KD) were calculated from the estimated on- and off-rates using standard procedures known to the person skilled in the art.

[5] = target: T3, human CD3 on primary human pan-T cells; test: Mirrorball laser scanning cytometry on primary human pan-T cells, anti-penta-His Alexa Fluor 488 detection, 600 µM HSA
Method: as §3

[6] = target: T5, biotinylated extracellular domains of human CD123 (uniprot ID 26951), Fc format (human, UniProt P26951 19-305, biotinylated); test: SPR (ProteOn), biotinylated target on chip
T5 construct: extracellular domain
T5 sequence (looked up): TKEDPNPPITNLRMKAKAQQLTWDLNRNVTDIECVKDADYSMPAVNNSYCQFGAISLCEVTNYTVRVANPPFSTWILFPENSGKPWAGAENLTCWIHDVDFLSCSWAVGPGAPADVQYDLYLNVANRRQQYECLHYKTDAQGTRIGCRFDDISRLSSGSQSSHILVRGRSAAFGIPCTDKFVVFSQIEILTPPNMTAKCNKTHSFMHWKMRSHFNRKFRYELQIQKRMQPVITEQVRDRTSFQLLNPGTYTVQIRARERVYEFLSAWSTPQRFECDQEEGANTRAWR
Method: as §1, §2

T1 sequence (P20138 18-259 R69G): as the sequence (P20138 18-259) above, with R52G counted along it

B4: DARPin® protein #8 (designed binder)
chain: DLGKKLLEAARAGQDDEVRILMANGADVNALDWLGHTPLHLAAYEGHLEIVEVLLKNGADVNAIDDNNGFTPLHLAAIDGHLEIVEVLLKNGADVNAQDKFGKTAFDISIDNGNEDLAEILQKAAGSPTPTPTTPTPTPTTPTPTPTGSDLGDKLLLAATSGQDDEVRILLAAGADVNAKDYDGDTPLHLAADEGHLEIVEVLLKAGADVNAKDYSGSTPLHAAAAYGHLEIVEVLLKAGADVNAQDVFGYTPADLAAYVGHEDIAEVLQKAAGSPTPTPTTPTPTPTTPTPTPTGSDLGQKLLEAAWAGQDDEVRELLKAGADVNAKNSRGWTPLHTAAQTGHLEIFEVLLKAGADVNAKDDKGVTPLHLAAALGHLEIVEVLLKAGADVNAQDSWGTTPADLAAKYGHEDIAEVLQKAA
notes: CD123-CD33-CD3 ankyrin repeat protein, no half-life extension; also called DARPin® #8; not shown: N-terminal His-tag
EC50 [3]: 250 to 400 nM | Kd [4]: ~35 nM | koff [4]: 0.0015 s⁻¹ | kon [4]: ~49000 M⁻¹ s⁻¹

B6: DARPin® protein #9 (designed binder)
chain: B4 chain with D362N, G365R, Q394R, E411Q
notes: CD123-CD33-CD3 ankyrin repeat protein, no half-life extension; also called DARPin® #9; not shown: N-terminal His-tag
EC50 [3]: 50 to 100 nM | Kd [4]: ~15 nM | koff [4]: 0.0013 s⁻¹ | kon [4]: ~89000 M⁻¹ s⁻¹

B7: DARPin® protein #10 (designed binder)
chain: B4 chain with D312L, E317I, D362T, D363N, G365R, Q394R, S396T, E411R
notes: CD123-CD33-CD3 ankyrin repeat protein, no half-life extension; also called DARPin® #10; not shown: N-terminal His-tag
EC50 [3]: 5 to 15 nM | Kd [4]: ~6 nM | koff [4]: 0.00041 s⁻¹ | kon [4]: ~82000 M⁻¹ s⁻¹

Next, values leading:

binding result [1]: binds
B1: DARPin® protein #38 (designed binder)
chain: DLGVKLLRAAFHGQDDEVRILLAAGADVNAKDTDGETPLHYAAQFGHLEIVEVLLKAGADVNAKDAYGATPLHWAAWHGHLEIVEVLLKAGADVNAQDVSGATPADLAAKVGHEDIAEVLQKAA
notes: CD33-specific domain

binding result [1]: binds
B2: DARPin® protein #37 (designed binder)
chain: DLGWKLLLAASRGQDDEVRILLAAGADVNAKDIDEGYTPLHIAAYYGHLEIVEVLLKAGADVNAKDRYGKTPLHLAAISGHEDIAEVLLKAGADVNAQDDKGDTPADLAADYGHEDIAEVLQKAA
notes: CD33-specific domain

Kd [2]: 7.3 nM | koff [2]: 0.0304 s⁻¹ | kon [2]: 4.2e+06 M⁻¹ s⁻¹
B3: DARPin® protein #25 (designed binder)
chain: DLGDKLLLAATSGQDDEVRILLAAGADVNAKDYDGDTPLHLAADEGHLEIVEVLLKAGADVNAKDYSGSTPLHAAAAYGHLEIVEVLLKAGADVNAQDVFGYTPADLAAYVGHEDIAEVLQKAAGSPTPTPTTPTPTPTTPTPTPTGSDLGQKLLEAAWAGQDDEVRILLAAGADVNAKNSRGWTPLHTAAQTGHLEIFEVLLKAGADVNAKNDKRVTPLHLAAALGHLEIVEVLLKAGADVNARDSWGTTPADLAAKYGHGDIAEVLQKLN
notes: CD33-CD3; not shown: N-terminal His-tag

binding result [5]: no binding
B5: DARPin® protein #7 (designed binder)
chain: B4 chain with N329D, R331Q
notes: CD123-CD33-CD3 ankyrin repeat protein, no half-life extension; also called DARPin® #7; not shown: N-terminal His-tag

Kd [6]: 9.5 nM | koff [6]: 0.017 s⁻¹ | kon [6]: 1.79e+06 M⁻¹ s⁻¹
B8: DARPin® protein #26 (designed binder)
chain: DLGKKLLEAARAGQDDEVRILMANGADVNALDWLGHTPLHLAAYEGHLEIVEVLLKNGADVNAIDDNNGFTPLHLAAIDGHLEIVEVLLKNGADVNAQDKFGKTAFDISIDNGNEDLAEILQKAAGSPTPTPTTPTPTPTTPTPTPTGSDLGQKLLEAAWAGQDDEVRILLAAGADVNAKNSRGWTPLHTAAQTGHLEIFEVLLKAGADVNAKNDKRVTPLHLAAALGHLEIVEVLLKAGADVNARDSWGTTPADLAAKYGHGDIAEVLQKLN
notes: not shown: N-terminal His-tag
